The target of data set [1] is T1, Tailor (DmTailor180-560) (Drosophila melanogaster, UniProt Q9VI58 180-560). Briefly: crystal structure (2.0 A); two Mg2+; Crystallization conditions not in material; protein stock 20 mM HEPES pH 7.0, 150 mM KCl, 2 mM MgCl2, 1 mM DTT. Particulars: protein: recombinant; tags: none after TEV cleavage (His6-MBP removed); single strand.
In data set [2] the target is T1, Tailor (DmTailor180-560). In words: crystal structure (1.85 A); two Mg2+; Crystallization conditions not in material; protein stock 20 mM HEPES pH 7.0, 150 mM KCl, 2 mM MgCl2, 1 mM DTT. Particulars: protein: recombinant; tags: none after TEV cleavage (His6-MBP removed); single strand.

T1 sequence (Q9VI58 180-560): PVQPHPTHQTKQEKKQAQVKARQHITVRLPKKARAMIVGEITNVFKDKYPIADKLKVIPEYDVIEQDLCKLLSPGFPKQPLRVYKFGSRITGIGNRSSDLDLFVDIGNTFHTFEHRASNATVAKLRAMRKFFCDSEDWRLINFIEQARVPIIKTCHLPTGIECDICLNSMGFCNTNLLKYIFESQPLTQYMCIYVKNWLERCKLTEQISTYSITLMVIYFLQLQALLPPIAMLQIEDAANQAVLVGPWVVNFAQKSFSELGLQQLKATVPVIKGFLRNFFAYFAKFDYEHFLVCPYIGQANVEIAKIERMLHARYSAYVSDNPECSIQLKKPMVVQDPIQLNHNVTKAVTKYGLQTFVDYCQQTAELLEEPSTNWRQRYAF

As to UUUUUU (ssRNA) [U6], in the data set with Tailor (DmTailor180-560) [1], the binding result is given as “binds”.

Consider CACAGU (ssRNA), for which the binding result with Tailor (DmTailor180-560) [2] is “binds”.

Source of the values: article PMC6344859, “Structural basis for acceptor RNA substrate selectivity of the 3′ terminal uridylyl transferase Tailor”.
